Starred links: 1 amine or outer side, 2 acyl side, 3 side chain; linkers in the order of their positions; H or OH if unused. Non-standard residues stand in square brackets, D forms with d. Groups on a side chain read outwards from the residue. No end group written: not given here. *: point of attachment. C18 diacid = O=C(O)CCCCCCCCCCCCCCCCC(=O)*; γGlu = O=C(O)[C@H](CCC(=O)[*:2])N[*:1]; αMeL = CC(C)C[C@](C)(N)C(=O)O; Dap = NC[C@H](N)C(=O)O; AEEA = NCCOCCOCC(=O)O; Aib = CC(C)(N)C(=O)O

Holding throughout (assay): cell-based or functional assay
In assay [1] the target is hGLP-1R (Homo sapiens, UniProt P43220).
In assay [2] the target is T1, human GIP receptor (human) (UniProt P48546).
T1 sequence (looked up): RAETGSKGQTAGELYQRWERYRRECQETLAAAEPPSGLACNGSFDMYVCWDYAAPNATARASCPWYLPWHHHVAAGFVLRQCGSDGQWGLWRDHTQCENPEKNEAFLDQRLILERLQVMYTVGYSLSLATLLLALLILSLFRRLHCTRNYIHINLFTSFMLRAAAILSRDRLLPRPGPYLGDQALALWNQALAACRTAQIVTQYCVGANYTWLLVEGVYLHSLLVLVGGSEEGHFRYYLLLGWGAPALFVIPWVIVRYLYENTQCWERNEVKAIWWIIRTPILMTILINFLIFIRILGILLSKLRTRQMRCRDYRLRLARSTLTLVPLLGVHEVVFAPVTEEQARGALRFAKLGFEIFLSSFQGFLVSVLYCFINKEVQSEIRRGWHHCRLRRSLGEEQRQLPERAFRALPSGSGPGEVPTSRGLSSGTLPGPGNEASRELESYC

The target of assay [3] is human glucagon receptor (human) (UniProt P47871).
Assay [4] concerns the target human GLP-1R (SNAP-GLP-1R expressed in HEK293 cells) (human) (UniProt P43220).

Sequence of hGLP-1R (P43220 24-463): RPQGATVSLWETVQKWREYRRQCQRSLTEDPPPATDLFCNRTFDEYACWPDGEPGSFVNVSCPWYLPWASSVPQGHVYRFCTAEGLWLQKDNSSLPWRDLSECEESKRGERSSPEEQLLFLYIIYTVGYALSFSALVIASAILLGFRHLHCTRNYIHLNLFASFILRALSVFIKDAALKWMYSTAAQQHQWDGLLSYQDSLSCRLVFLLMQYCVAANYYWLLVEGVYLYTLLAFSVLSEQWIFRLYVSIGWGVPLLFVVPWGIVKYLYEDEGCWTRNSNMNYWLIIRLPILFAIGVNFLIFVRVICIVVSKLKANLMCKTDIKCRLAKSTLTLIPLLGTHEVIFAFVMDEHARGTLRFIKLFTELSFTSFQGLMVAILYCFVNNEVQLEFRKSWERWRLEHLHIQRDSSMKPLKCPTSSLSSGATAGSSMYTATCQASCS
Sequence of human GLP-1R (SNAP-GLP-1R expressed in HEK293 cells) (human) (P43220 24-463): as above
Sequence of human glucagon receptor (human) (P47871 26-477): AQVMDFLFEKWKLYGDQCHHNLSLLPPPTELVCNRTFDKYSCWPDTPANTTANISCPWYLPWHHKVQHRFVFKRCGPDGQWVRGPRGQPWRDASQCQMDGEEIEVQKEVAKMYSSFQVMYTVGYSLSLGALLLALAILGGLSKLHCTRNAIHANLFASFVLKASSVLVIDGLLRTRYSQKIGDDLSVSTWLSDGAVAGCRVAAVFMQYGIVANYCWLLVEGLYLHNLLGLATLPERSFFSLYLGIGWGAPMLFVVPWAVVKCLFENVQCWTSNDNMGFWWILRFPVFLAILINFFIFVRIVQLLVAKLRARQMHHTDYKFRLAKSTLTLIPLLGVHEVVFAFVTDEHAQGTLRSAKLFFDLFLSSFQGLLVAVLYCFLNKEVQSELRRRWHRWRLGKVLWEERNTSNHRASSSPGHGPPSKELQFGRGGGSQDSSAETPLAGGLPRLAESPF

B1: Example 155 (peptide)
chain: YXQGTFTSDFSXXLDKKAQXAFIEYLLEAGPSSGEPPPSGS
modifications: non-natural residues; lysine acylated with AEEA linker C18 diacid; C-amide; synthetic construct; SITE 2: note = 2-Aminoisobutyric Acid; SITE 12: note = L-ornithine; SITE 13: note = alpha-methyl-leucine; SITE 17: note = Lysine is chemically modified through conjugation of the epsilon-amino group of the Lysine side chain with (2-[2-(2-Amino-ethoxy)-ethoxy]-acetyl)2-(gamma-Glu)
Consider B1, for which, in assay [1], the Relative cAMP EC50, nM (0.1% casein) turned out to be 2.98 nM and the cAMP Rel EC50, nM (1% HSA) amounted to 503 nM. Also, in assay [2], the Relative cAMP EC50, nM (0.1% casein) is 0.177 nM and the cAMP Rel EC50, nM (1% HSA) came out at 18.9 nM. Further, in assay [3], the Relative cAMP EC50, nM (0.1% casein) came out at 5.68 nM and the cAMP Rel EC50, nM (1% HSA) came out at 1310 nM. In assay [4], the GLP1R Internalization EC50 was 85.1 nM and the Internalization % TOP worked out at 54.5%.

B2: Example 164 (peptide)
chain: YXQGTFTSDFSXXLDKKAQXAFIEYLLEGGHSSGEPPPGGS
modifications: non-natural residues; lipidated Lys AEEA-γGlu-C18 diacid; C-term amide; synthetic construct; SITE 2: note = 2-Aminoisobutyric Acid; SITE 12: note = L-ornithine; SITE 13: note = alpha-methyl-leucine; SITE 17: note = Lysine is chemically modified through conjugation of the epsilon-amino group of the Lysine side chain with (2-[2-(2-Amino-ethoxy)-ethoxy]-acetyl)-(gamma-Glu)
B2: the figures for the Relative cAMP EC50, nM (0.1% casein) in assay [1], in assay [2] and in assay [3] were 5.02 nM, 0.302 nM and 2.92 nM, respectively. Besides, the cAMP Rel EC50, nM (1% HSA) in assay [1] was 962 nM; in assay [2], 59 nM; in assay [3], 411 nM. For the same molecule, the GLP1R Internalization EC50 in assay [4] was 45.9 nM. This molecule displayed an Internalization % TOP in assay [4] of 46.5%.

B3: Example 136 (peptide)
chain: YXQGTFTSDFSXXLDKKAQXAFIEWLLEGGPSSGAXPPSGE
modifications: synthetic construct; SITE 2: note = 2-Aminoisobutyric Acid; SITE 12: note = L-ornithine; SITE 13: note = alpha-methyl-leucine; SITE 17: note = Lysine is chemically modified through conjugation of the epsilon-amino group of the Lysine side chain with (2-[2-(2-Amino-ethoxy)-ethoxy]-acetyl)-(gamma-Glu)
Consider B3, for which the Relative cAMP EC50 in assay [1] is 3.8 nM; in assay [2], 0.221 nM; in assay [3], 8.73 nM. Besides, the cAMP Rel EC50, nM (in the presence of 1% HSA) in assay [1] was determined as 625 nM; in assay [2], 32.9 nM; in assay [3], 960 nM. The molecule further displayed a GLP1R Internalization EC50 in assay [4] of 36.1 nM. In assay [4], this molecule returned an Internalization % TOP of 37.8%.

B4: Example 141 (peptide)
chain: YXQGTFTSDFSKXLDKKAQXAFIEYLLEGGPSSGAPPPSGS
modifications: synthetic construct; SITE 2: note = 2-Aminoisobutyric Acid; SITE 13: note = alpha-methyl-leucine; SITE 17: note = Lysine is chemically modified through conjugation of the epsilon-amino group of the Lysine side chain with (2-[2-(2-Amino-ethoxy)-ethoxy]-acetyl)-(gamma-Glu)-CO-(CH2) 16-CO2H; SITE 20: n
On to B4, for which the Relative cAMP EC50 is 1.96 nM in assay [1], 0.21 nM in assay [2] and 1.77 nM in assay [3]. In addition, the cAMP Rel EC50, nM (in the presence of 1% HSA) in assay [1] is 562 nM; in assay [2], 62.1 nM; in assay [3], 877 nM. The same molecule yielded a GLP1R Internalization EC50 in assay [4] of 95.3 nM. This molecule also came in with an Internalization % TOP in assay [4] of 64.1%.

B5: Example 163 (peptide)
chain: YXQGTFTSDFSXXLDKKAQXAFIEYLLEGGXSSGAPPPGGS
modifications: non-natural residues; lysine acylated with AEEA linker C18 diacid; C-amide; synthetic construct; SITE 2: note = 2-Aminoisobutyric Acid; SITE 12: note = L-ornithine; SITE 13: note = alpha-methyl-leucine; SITE 17: note = Lysine is chemically modified through conjugation of the epsilon-amino group of the Lysine side chain with (2-[2-(2-Amino-ethoxy)-ethoxy]-acetyl)-(gamma-Glu)
In assay [1], B5 yielded a Relative cAMP EC50, nM (0.1% casein) of 6.5 nM and a cAMP Rel EC50, nM (1% HSA) of 762 nM. In assay [2], the Relative cAMP EC50, nM (0.1% casein) was found to be 0.376 nM and the cAMP Rel EC50, nM (1% HSA) is 52 nM. In assay [3], this molecule registered a Relative cAMP EC50, nM (0.1% casein) of 5.6 nM and a cAMP Rel EC50, nM (1% HSA) of 790 nM. In assay [4], this molecule displayed a GLP1R Internalization EC50 of 143 nM and an Internalization % TOP of 37.8%.

B6: Example 137 (peptide)
chain: YXQGTFTSDFSXXLDKKAQXAFIEWLLEGGPSSGAPXPSGE
modifications: synthetic construct; SITE 2: note = 2-Aminoisobutyric Acid; SITE 12: note = L-ornithine; SITE 13: note = alpha-methyl-leucine; SITE 17: note = Lysine is chemically modified through conjugation of the epsilon-amino group of the Lysine side chain with (2-[2-(2-Amino-ethoxy)-ethoxy]-acetyl)-(gamma-Glu)
As to B6, in assay [1], the Relative cAMP EC50 came to 3.18 nM and the cAMP Rel EC50, nM (in the presence of 1% HSA) was found to be 447 nM. In assay [2], the Relative cAMP EC50 came to 0.269 nM and the cAMP Rel EC50, nM (in the presence of 1% HSA) is 23.7 nM. In assay [3], the Relative cAMP EC50 worked out at 4.43 nM and the cAMP Rel EC50, nM (in the presence of 1% HSA) is 905 nM. In assay [4], this molecule displayed a GLP1R Internalization EC50 of 60.2 nM and an Internalization % TOP of 47.7%.

B7: Example 154 (peptide)
chain: YXQGTFTSDXSXXLDKKAQXAFIEYLLAGGPSSGEPPPSGS
modifications: Aib, 4Pal, Orn, αMeL; lipidated Lys; C-terminal amide; synthetic construct; SITE 2: note = 2-Aminoisobutyric Acid; SITE 10: note = 3-(4-Pyridyl)-L-alanine; SITE 12: note = L-ornithine; SITE 13: note = alpha-methyl-leucine; SITE 17: note = Lysine is chemically modified through conjugation of the epsilon-amino group of the Lysine side chain with (2-[2-(2-
Turning to B7, the Relative cAMP EC50, nM (0.1% casein) in assay [1] stood at 4.94 nM; in assay [2], 0.227 nM; in assay [3], 8.72 nM. Also, the cAMP Rel EC50, nM (1% HSA) worked out at 569 nM in assay [1], 29.7 nM in assay [2] and 1040 nM in assay [3]. The same molecule showed a GLP1R Internalization EC50 in assay [4] of 47.7 nM. In addition, the Internalization % TOP in assay [4] came to 65.9%.

B8: Example 132 (peptide)
chain: YXQGTFTSDXSRXLDKKAQXAFIEYLLEXGESSGAPPPSGS
modifications: synthetic construct; SITE 2: note = 2-Aminoisobutyric Acid; SITE 10: note = 3-(4-Pyridyl)-L-alanine; SITE 13: note = alpha-methyl-leucine; SITE 17: note = Lysine is chemically modified through conjugation of the epsilon-amino group of the Lysine side chain with (2-[2-(2-Amino-ethoxy)-ethoxy]-acetyl)
Consider B8, for which, in assay [1], the Relative cAMP EC50 is 5.72 nM and the cAMP Rel EC50, nM (in the presence of 1% HSA) was 823 nM. In addition, in assay [2], the Relative cAMP EC50 came to 0.21 nM and the cAMP Rel EC50, nM (in the presence of 1% HSA) is 25.9 nM. In assay [3], the Relative cAMP EC50 is 2.63 nM and the cAMP Rel EC50, nM (in the presence of 1% HSA) was determined as 632 nM. In assay [4], this molecule gave a GLP1R Internalization EC50 of 72.7 nM and an Internalization % TOP of 67.2%.

As for Y[Aib]QGTFTSDFS[Dap][αMeL]LDKK([AEEA-γGlu-C18 diacid])AQ[Aib]AFIEYLLE[Aib]GPSSGAPPPSGS-NH2 [Example 134], in assay [1], the Relative cAMP EC50 was determined as 3.36 nM and the cAMP Rel EC50, nM (in the presence of 1% HSA) was found to be 549 nM. In assay [2], the Relative cAMP EC50 was 0.152 nM and the cAMP Rel EC50, nM (in the presence of 1% HSA) is 38.3 nM. Besides, in assay [3], the Relative cAMP EC50 is 7.28 nM and the cAMP Rel EC50, nM (in the presence of 1% HSA) worked out at 1200 nM. Further, in assay [4], the GLP1R Internalization EC50 stood at 67.9 nM and the Internalization % TOP was found to be 22.3%.

Values taken from patent US20240270821A1, “GIP/GLP1/GCG TRI-RECEPTOR AGONISTS AND USES THEREOF” (priority 2023, published 2024).
